# Test results reported in US5792634.
# Biological target: RNA polymerase II purified from rat liver (rat)
substance,measurement,value
"RNA polymerase transcription factor SIII (Elongin), purified from rat liver","rate of RNA chain elongation, runoff transcription from the AdML promoter",> 5 fold
